Like-named read-outs stand apart in the source and are kept apart here. Marks after values point to notes of the source that are not given here.
Assays:
Type in all cases: cell-based
[1] = target: NaChBac (Halalkalibacterium halodurans (Bacillus halodurans), UniProt Q9KCR8, S273L); experiment: cell-based
[2] = tested on: CHO-K1 cells or COS-7 cells; experiment: Ca2+/Na+ selectivity of wt and mutant NaChBac, reversal potential under bi-ionic conditions (Example 2); conditions: for PCa/PNa: external solution 80 NMDG-Cl, 50 CaCl2, 20 HEPES
Method: (§1) Unless otherwise stated, the pipette solution contained (in mM); 147 Cs, 120 methanesulfonate, 8 NaCl, 10 EGTA, 2 Mg^2+-adenosine triphosphate, and 20 HEPES (pH 7.4). Bath solution contained (in mM); 140 NaCl, 10 CaCl2, 5 KCl, 10 HEPES (pH 7.4), and 10 glucose. For some experiments, NaCl was isotonically replaced by CaCl2.
For reversal potential measurements to determine the relative permeabilities of Na^+ and Ca^2+, the internal pipette solution contained (in mM): 100 mM Na-Gluconate, 10 NaCl, 10 EGTA, 20 HEPES-Na (pH 7.4 adjusted with NaOH, [Na^+]total=140). The external solution was (in mM): 140 NMDG-Cl, 10 CaCl2, 20 HEPES (pH 7.4 adjusted with HCl) or 80 NMDG-Cl, 50 CaCl2, and 20 HEPES. The fast kinetics and small current amplitude of SKM1 in 10 mM [Ca^2+]o necessitated the use of 50 mM [Ca^2+]o for accurate determination of Erev. The permeability ratio of Ca2+ was estimated according to the following equation: PCa/Px=asi(exp(ErevF/RT)[(exp(ErevF/RT)+1]/(4ase) where R, T, F, and Erev are the gas constant, absolute temperature, Faraday constant, and reversal potential, respectively, and x represents Cs^+ or Na^+ (i, internal; e, external) (Hille 2001). For calculations of membrane permeability, activity coefficients for Ca^2+, Cs^+ and Na^+ were estimated as follows: as=γs[Xs] where activity, as, is the effective concentration of an ion in solution, s related to the nominal concentration [Xs] by the activity coefficient, γs·γs was calculated from the Debye-Hückel equation: log γs=−0.51*zs^2√μ/[1+3.8ασ√μ] where μ is the ionic strength of the solution, zs is the charge on the ion, and αs is the effective diameter of the hydrated ion in nanometers (nm). The calculated activity coefficients were γ(Cs)i=0.70, γ(Ca)e=0.331, γ(Na)i=0.75 and γ(Na)e=0.73. The liquid junction potentials were measured using a salt bridge as described by Neher (Neher 1992) and these measurements agreed within 3 mV to those calculated by the JPCalc program (P. Barry) within Clampex (Axon Instruments, Union City, Calif.).
Reversal potentials of the NaChBac mutants were measured under bi-ionic conditions as described in the Methods. […] The average peak current amplitude measured at 0 mV obtained in 10 mM Ca^2+ Tyrode's solution or in 105 mM Ca^2+ solution is shown in FIG. 7B and normalized to the current amplitude measured in 10 mM Ca^2+ solution (FIG. 7C).
Relative permeability (PCa/PNa) was calculated as described in the Methods and Table 1. Since PCa/PNa had not been described for native Nav channels under these specific conditions, we also measured the relative permeability for SKM1, a skeletal muscle Na^+-selective channel (SKM1; Kraner, Rich et al. 1998) was expressed in COS and CHO cells and examined under identical conditions as NaChBac and similar to its mutants; Table 1).

[3] = tested on: CHO-K1 or COS-7 cells; experiment: Single channel properties of NaChBac, inside-out patch
Source text: The single channel properties of NaChBac were studied in the inside-out patch configuration. Solutions were the same as used in whole-cell recording except that the pipette and bath solutions were reversed. The unitary single channel conductance was best fit with a slope of 12 pS±1 pS (n=7 cells). Consistent with the whole-cell current, single channels were activated by depolarization and both open and closed times varied as a function of voltage (not shown). An ensemble average of single channel currents from 5 cells resembled whole cell INaChBac with τact=10±3.5 ms and τinact=203±43 ms (FIG. 2D).

[4] = tested on: CHO-K1 or COS-7 cells; experiment: Ion selectivity and relative permeability of NaChBac (Example 1)
Source text: The internal pipette solution used in determining the relative permeability of K^+ and Ca^2+ contained (in mM) 133 Cs-methanesulfonate, 5 CsCl, 10 EGTA, 10 HEPES (pH adjust to 7.2 with CsOH). External solution for K^+ permeability experiments contained 142 KCl, 10 HEPES, 10 glucose (pH 7.3 adjusted with KOH). External solution for Ca^+ permeability determinations contained 105 CaCl2, 10 HEPES, 20 glucose (pH 7.3, adjusted with Ca(OH2). The external solution used to study Ma^+ permeability contained (in mM): 140 NaCl, 5CsCl, 10 HEPES, 10 glucose (pH 7.3, adjusted with NaOH). Internal solutions were the same as described in the Detection of Current example. The relative permeability of Cs^+ versus Na^+ was calculated according to: PCs/PNa=([Na]o−[Na]iexp(ErevF/RT)/([Cs]iexp(Erev/RT)/([Cs]o) (1)
The relative permeabilities of K^+ and Ca^2+ were evaluated under bi-ionic conditions, and the relative permeability of K^+ and Ca^2+ to Cs^+ was calculated according to the following equations: Pk/PCs=[Cs]iexp(ErevF/RT)/[K]o (2) PCa/Pcs=([Cs]iexp(ErevF/RT){exp(ErevR/RT)+1}/4[Ca]o) (3)
INaChBac was weakly permeant to Ca^2+; no significant difference in current was observed by sequential perfusion with bath solution containing 1 and 10 mM [Ca^2+]o (FIG. 3B). In isotonic [Ca^2+]o (cations replaced with 105 mM Ca^2), in the inward current was <6% of that in normal [Na^+] (7.6±0.9 pA/pF at −10 mV, n=8; FIG. 3B). In contrast, INaChBac, amplitude correlated well with [Na^+]o (FIG. 3C, D). […] To estimate the relative ion selectivity of the channel, we measured changes in reversal potential while changing ionic composition. The calculated relative selectivity (±SEM) of NaChBac based on measured Erev was: PNa/PCa=72±10 (n=12); PNa/PCs=383±56(n=8); PNa/PK=171±16(n=8). INaCahBac selectivity for Na^+ is at least as high as traditional Nav channels (1, 14).

[5] = tested on: CHO-K1 or COS-7 cells; experiment: Whole-cell current, activation, inactivation and recovery of NaChBac (Example 1)
[6] = tested on: CHO-K1 cells or COS-7 cells; experiment: Expression, voltage- and time-dependence of wt and mutant NaChBac (Example 2)
Source text: NaChBac was cloned from Bacillus halodurans C-125 DNA by the polymerase chain reaction (PCR; BAB05220) (Ren, Navarro et al. 2001). The NaChBac construct containing an open reading frame of 274 amino acid residues was subcloned into a pTracer-CMV2 vector (Invitrogen, Carlsbad, Calif.) containing enhanced green fluorescent protein (eGFP). The skeletal muscle Na^+ channel SKM1 (M26643) was used in comparison to NaChBac under identical recording conditions and determinations of permeability ratios. Mutations were introduced into the NaChBac cDNA by site-directed mutagenesis (Quickchange™ site-directed mutagenesis kit; Stratagene; La Jolla, Calif.). All mutations were confirmed by DNA sequencing and restriction digestion. Wild-type NaChBac and mutant cDNAs were transfected into CHO-K1 cells or COS-7 cells with LipofectAMINE 2000 (Life Technologies, Rockville, Md.). Transfected cells were identified by fluorescence microscopy and membrane currents were recorded 24 to 48 hours after transfection.
as §1
The voltage dependence of NaChBac and mutants channel activation was determined from a holding potential of −100 mV. Instantaneous tail current were measured at −100 mV after a test potential of 40 ms duration. Normalized tail current amplitude was plotted vs. test potentials and fitted with a Boltzmann function. Measurements of steady state inactivation for NaChBac and mutants channel were resolved using 2 s prepulses and 1 s test pulse to −10 mV, 0 mV or +20 mV depending on the mutant's peak voltage. Cells were held at −100 mV for 20 s between pulses to allow the recovery from inactivation. Normalized test current amplitude was plotted vs. prepulse potential and fitted with a Boltzmann function. The activation and steady state inactivation curve were fitted by the Boltzmann equation: I=Imax−(Imax−Imin)/(1+exp((V−V1/2)/k)) where Imax and Imin are the maximum and minimum current values, V is the test voltage, V1/2 is the voltage activation midpoint and k is the slope factor.
Whole-cell currents were recorded using an Axopatch 200B (Axon Instruments, Union City, Calif.) amplifier. Data were digitized at 10 or 20 kHz, and digitally filtered off-line at 1 kHz. Patch electrodes were pulled from borosilicate glass and had resistances of 2-5 MΩ. All experiments were conducted at 22°±2° C. For CHO cells, cell capacitance was 7.6±0.3 pF and for COS-7 cells was 13.9±0.6 pF. […] Series resistance (Rs) was compensated up to 90% to reduce all series resistance errors to <5 mV. Cells in which […] were discarded. Pooled data are presented as means±SEM. Statistical comparisons were made using two-way analysis of variance (ANOVA) and two-tailed t-test with Bonferroni correction; P<0.05 indicated statistical significance.

[7] = calculated from measured Erev, n=8

[Cd+2] [Cd^2+]
reduction of the channel current [1]: reduced the channel current to various degrees

[Co+2] [Co^2+]
reduction of the channel current [1]: reduced the channel current to various degrees

[Ni+2] [Ni^2+]
IC50 ([1]; read-out: concentration of agent needed to block INaChBac by 50% (IC50)): 720 µM

COCC(=O)O[C@]1(CCN(C)CCCc2nc3ccccc3[nH]2)CCc2cc(F)ccc2[C@@H]1C(C)C [mibefradil]
IC50 [1]: 22 µM | sensitivity of INaChBac to the blocker (figure legend) [1]: relatively insensitive

COC(=O)C1=C(C)NC(C)=C(C(=O)OC)C1c1ccccc1[N+](=O)[O-] [nifedipine, Nifedipine]
IC50 [1]: 2.2 µM

COCCOC(=O)C1=C(C)NC(C)=C(C(=O)OC(C)C)C1c1cccc([N+](=O)[O-])c1 (stereo not drawn) [nimodipine]
IC50 [1]: 1 µM

NC1=N[C@H](O)[C@H]2[C@H]3O[C@]4(O)O[C@@H]([C@@H](O)[C@@]2(N1)[C@@H]4O)[C@]3(O)CO [tetrodotoxin, Tetrodotoxin]
block of INaChBac [1]: completely insensitive | sensitivity of INaChBac to the blocker (figure legend) [1]: insensitive

SKM1: skeletal muscle Na+ channel SKM1 (M26643), used in comparison to NaChBac [reference compound]
PCa/PNa [2]: 0.32 ± 0.07 (n = 8)^c

ω-Agatoxin IVA
block of INaChBac [1]: ineffective

ω-Conotoxin GVIA
block of INaChBac [1]: ineffective

B1: NaChBac: bacterial voltage-sensitive Na+-selective ion channel from Bacillus halodurans, 274 amino acids, SEQ ID NO: 1; pore residues 190-195 LESWAS (protein)
chain: MKMEARQKQNSFTSKMQKIVNHRAFTFTVIALILFNALIVGIETYPRIYADHKWLFYRIDLVLLWIFTIEIAMRFLASNPKSAFFRSSWNWFDFLIVAAGHIFAGAQFVTVLRILRVLRVLRAISVVPSLRRLVDALVMTIPALGNILILMSIFFYIFAVIGTMLFQHVSPEYFGNLQLSLLTLFQVVTLESWASGVMRPIFAEVPWSWLYFVSFVLIGTFIIFNLFIGVIVNNVEKAELTDNEEDGEADGLKQEISALRKDVAELKSLLKQLK
modifications: Bacillus Halodurans
notes: pore residues 190-195 LESWAS
current in 10 mM Ca2+/NMDG solution compared to 10 mM Ca2+ solution with Na+ [2]: almost undetectable | current on replacing 140 mM Na+/10 mM Ca2+ solution by isotonic (105 mM) Ca2+ solution [2]: practically undetectable | PCa/PNa ([2]; listed as wt NaChBac): 0.15 | current in 10 mM Ca2+/NMDG solution compared to 10 mM Ca2+ solution with Na+ ([2]; listed as wt NaChBac): virtually eliminated | τact of ensemble average of single channel currents ([3]; 5 cells): 10 ± 3.5 ms | τinact of ensemble average of single channel currents ([3]; 5 cells): 203 ± 43 ms | unitary single channel conductance ([3]; inside-out patch, n=7 cells): 12 pS | slope of Erev as a function of [Na+]o [4]: 57.8 mV/decade | inward current in isotonic [Ca2+]o relative to that in normal [Na+] ([4]; 105 mM Ca2+): < 6% | peak current ([4]; 140 mM [Na+]o/1 mM [Ca2+]o): 1430 pA | current density ([4]; 140 mM [Na+]o/1 mM [Ca2+]o, n=8): 135.9±11 pA/pF | relative selectivity PNa/PCs [4, 7]: 383±56 | relative selectivity PNa/PK [4, 7]: 171±16 | relative selectivity PNa/PCa ([4]; calculated from measured Erev, n=12): 72±10 | peak current ([4]; isotonic [Ca2+]o): 87 pA | current density ([4]; isotonic [Ca2+]o (105 mM Ca2+), −10 mV, n=8): 7.6±0.9 pA/pF | voltage of 50% steady-state inactivation [5]: −40 mV | activation τ ([5]; at −10 mV, n=32): 12.9 ± 0.4 ms | inactivation τ ([5]; at −10 mV, n=32): 166 ± 13 ms | reversal potential of INaChBac ([5]; whole-cell, ENa=+72 mV): +70 mV | current in COS-7 cells relative to CHO-K1 cells [6]: 4 to 6 times | GFP expressing/transfected cells with substantial or detectable currents ([6]; 24-48 hours after transfection): More than 98% | V1/2 act ([6]; Boltzmann fit of tail currents): −22 mV | τact ([6]; membrane voltage −10 mV): 12.9 ± 0.4^a ms | τinact ([6]; membrane voltage −10 mV): 166.0 ± 13^a ms | kact ([6]; slope factor of activation): 7 mV/e fold | V1/2 inact ([6]; steady state inactivation, 2 s prepulses): −40 mV

Source: patent US7790845B2, “Bacterial ion channel” (Children's Medical Center Corporation, priority 2001, dated 2010)
